*1 amine or outer side, *2 acyl side, *3 side chain or, on linkers, in order; H or OH if unused. Bridges are numbered along the chain shown (N, C = ends). [ ]: non-standard residue; d: D form. The star is where a group is joined. (N-(imidazol-2-yl)methyl)Asn = N-(imidazol-2-yl)methyl-asparagine, O=C(C[C@H](N[*:1])C(=O)[*:2])NCc1ncc[nH]1; (N-(3-aminophenyl))Asn = N-(3-aminophenyl)-asparagine, O=C(C[C@H](N[*:1])C(=O)[*:2])Nc1cccc(N[*:3])c1; (N-(3-Pyz))Asn = N-pyrazol-3-yl-asparagine, O=C(C[C@H](N[*:1])C(=O)[*:2])Nc1cc[nH]n1; Trp(7-Me) = Cc1cccc2c(C[C@H](N)C(=O)O)c[nH]c12; (N-Pyr)Asn = N-pyrrolidin-3-yl-asparagine; (N-Pip)Asn = N-piperidin-4-yl-asparagine; 2Nal = N[C@@H](Cc1ccc2ccccc2c1)C(=O)O; AEF = NCCOc1ccc(C[C@H](N)C(=O)O)cc1; αMeF = C[C@](N)(Cc1ccccc1)C(=O)O; Cit = NC(=O)NCCC[C@H](N)C(=O)O; αMeL = CC(C)C[C@](C)(N)C(=O)O; Pen = CC(C)(S)[C@H](N)C(=O)O; αMeK = C[C@](N)(CCCCN)C(=O)O; αMeC = C[C@](N)(CS)C(=O)O; Thp = NC1(C(=O)O)CCOCC1; Abu = CC[C@H](N)C(=O)O; Piv = CC(C)(C)C(=O)*; Tfa = O=C(C(F)(F)F)*
T1: human IL-23R (interleukin-23 receptor) (human, UniProt Q5VWK5 24-629)
T1 sequence (looked up): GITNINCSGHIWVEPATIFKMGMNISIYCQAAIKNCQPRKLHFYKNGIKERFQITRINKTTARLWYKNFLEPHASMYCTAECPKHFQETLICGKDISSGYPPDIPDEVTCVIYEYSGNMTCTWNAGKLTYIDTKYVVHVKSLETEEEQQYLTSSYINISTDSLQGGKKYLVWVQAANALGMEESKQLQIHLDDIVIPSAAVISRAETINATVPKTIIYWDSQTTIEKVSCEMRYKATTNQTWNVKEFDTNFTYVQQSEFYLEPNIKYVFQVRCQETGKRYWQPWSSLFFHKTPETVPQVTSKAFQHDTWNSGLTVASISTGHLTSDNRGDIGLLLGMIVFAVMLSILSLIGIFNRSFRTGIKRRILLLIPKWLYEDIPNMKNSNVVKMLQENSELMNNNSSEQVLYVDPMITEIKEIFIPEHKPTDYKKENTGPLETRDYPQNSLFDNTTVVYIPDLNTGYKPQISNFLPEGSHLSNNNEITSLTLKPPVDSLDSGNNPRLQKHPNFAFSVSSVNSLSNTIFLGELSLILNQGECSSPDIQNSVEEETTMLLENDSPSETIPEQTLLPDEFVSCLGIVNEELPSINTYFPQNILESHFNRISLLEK

B1: Compound No. 137 (peptide)
peptide: Ac-[dR][Pen]QTWQ[Pen][AEF][2Nal][Thp]EN[(N-(imidazol-2-yl)methyl)Asn]-NH2
modifications: disulfide 2-7
SMILES: CC(=O)N[C@H](CCCNC(=N)N)C(=O)N[C@@H]1C(=O)N[C@@H](CCC(N)=O)C(=O)N[C@@H]([C@@H](C)O)C(=O)N[C@@H](Cc2c[nH]c3ccccc23)C(=O)N[C@@H](CCC(N)=O)C(=O)N[C@H](C(=O)N[C@@H](Cc2ccc(OCCN)cc2)C(=O)N[C@@H](Cc2ccc3ccccc3c2)C(=O)NC2(C(=O)N[C@@H](CCC(=O)O)C(=O)N[C@@H](CC(N)=O)C(=O)N[C@@H](CC(=O)NCc3ncc[nH]3)C(N)=O)CCOCC2)C(C)(C)SSC1(C)C
B2: Compound No. 133 (peptide)
peptide: Ac-[dR][Pen]QTWQ[Pen][AEF][2Nal][Thp]EN[(N-(3-Pyz))Asn]-NH2
modifications: disulfide 2-7
SMILES: CC(=O)N[C@H](CCCNC(=N)N)C(=O)N[C@@H]1C(=O)N[C@@H](CCC(N)=O)C(=O)N[C@@H]([C@@H](C)O)C(=O)N[C@@H](Cc2c[nH]c3ccccc23)C(=O)N[C@@H](CCC(N)=O)C(=O)N[C@H](C(=O)N[C@@H](Cc2ccc(OCCN)cc2)C(=O)N[C@@H](Cc2ccc3ccccc3c2)C(=O)NC2(C(=O)N[C@@H](CCC(=O)O)C(=O)N[C@@H](CC(N)=O)C(=O)N[C@@H](CC(=O)Nc3cc[nH]n3)C(N)=O)CCOCC2)C(C)(C)SSC1(C)C
B3: Compound No. 138 (peptide)
peptide: Ac-[Pen]NT[Trp(7-Me)]K(Ac)[Pen][AEF][2Nal][Thp]K(Tfa)N[αMeF]-NH2
modifications: disulfide 1-6
SMILES: CC(=O)NCCCC[C@@H]1NC(=O)[C@H](Cc2c[nH]c3c(C)cccc23)NC(=O)[C@H]([C@@H](C)O)NC(=O)[C@H](CC(N)=O)NC(=O)[C@@H](NC(C)=O)C(C)(C)SSC(C)(C)[C@@H](C(=O)N[C@@H](Cc2ccc(OCCN)cc2)C(=O)N[C@@H](Cc2ccc3ccccc3c2)C(=O)NC2(C(=O)N[C@@H](CCCCNC(=O)C(F)(F)F)C(=O)N[C@@H](CC(N)=O)C(=O)N[C@@](C)(Cc3ccccc3)C(N)=O)CCOCC2)NC1=O
B4: Compound No. 130 (peptide)
peptide: Ac-[dR][Pen]QTWQ[Pen][AEF][2Nal][Thp]EN[(N-(3-aminophenyl))Asn]-NH2
modifications: disulfide 2-7
SMILES: CC(=O)N[C@H](CCCNC(=N)N)C(=O)N[C@@H]1C(=O)N[C@@H](CCC(N)=O)C(=O)N[C@@H]([C@@H](C)O)C(=O)N[C@@H](Cc2c[nH]c3ccccc23)C(=O)N[C@@H](CCC(N)=O)C(=O)N[C@H](C(=O)N[C@@H](Cc2ccc(OCCN)cc2)C(=O)N[C@@H](Cc2ccc3ccccc3c2)C(=O)NC2(C(=O)N[C@@H](CCC(=O)O)C(=O)N[C@@H](CC(N)=O)C(=O)N[C@@H](CC(=O)Nc3cccc(N)c3)C(N)=O)CCOCC2)C(C)(C)SSC1(C)C
B5: Compound No. 124 (peptide)
peptide: Ac-[dR][Pen]NT[Trp(7-Me)]K(Ac)[Pen][AEF][2Nal][Thp]EN[αMeF]-NH2
modifications: disulfide 2-7
SMILES: CC(=O)NCCCC[C@@H]1NC(=O)[C@H](Cc2c[nH]c3c(C)cccc23)NC(=O)[C@H]([C@@H](C)O)NC(=O)[C@H](CC(N)=O)NC(=O)[C@@H](NC(=O)[C@@H](CCCNC(=N)N)NC(C)=O)C(C)(C)SSC(C)(C)[C@@H](C(=O)N[C@@H](Cc2ccc(OCCN)cc2)C(=O)N[C@@H](Cc2ccc3ccccc3c2)C(=O)NC2(C(=O)N[C@@H](CCC(=O)O)C(=O)N[C@@H](CC(N)=O)C(=O)N[C@@](C)(Cc3ccccc3)C(N)=O)CCOCC2)NC1=O
B6: Compound No. 122 (peptide)
peptide: Ac-CNTWK(Ac)[αMeC][AEF][2Nal][αMeK]K(Ac)N[αMeF]-NH2
modifications: disulfide 1-6
SMILES: CC(=O)NCCCC[C@@H]1NC(=O)[C@H](Cc2c[nH]c3ccccc23)NC(=O)[C@H]([C@@H](C)O)NC(=O)[C@H](CC(N)=O)NC(=O)[C@@H](NC(C)=O)CSSC[C@@](C)(C(=O)N[C@@H](Cc2ccc(OCCN)cc2)C(=O)N[C@@H](Cc2ccc3ccccc3c2)C(=O)N[C@@](C)(CCCCN)C(=O)N[C@@H](CCCCNC(C)=O)C(=O)N[C@@H](CC(N)=O)C(=O)N[C@@](C)(Cc2ccccc2)C(N)=O)NC1=O
B7: Compound No. 149 (peptide)
peptide: Ac-[dR][Pen]NT[Trp(7-Me)][Cit][Pen][AEF][2Nal][αMeL]EN[αMeF]-NH2
modifications: disulfide 2-7
SMILES: CC(=O)N[C@H](CCCNC(=N)N)C(=O)N[C@@H]1C(=O)N[C@@H](CC(N)=O)C(=O)N[C@@H]([C@@H](C)O)C(=O)N[C@@H](Cc2c[nH]c3c(C)cccc23)C(=O)N[C@@H](CCCNC(N)=O)C(=O)N[C@H](C(=O)N[C@@H](Cc2ccc(OCCN)cc2)C(=O)N[C@@H](Cc2ccc3ccccc3c2)C(=O)N[C@@](C)(CC(C)C)C(=O)N[C@@H](CCC(=O)O)C(=O)N[C@@H](CC(N)=O)C(=O)N[C@@](C)(Cc2ccccc2)C(N)=O)C(C)(C)SSC1(C)C
B8: Compound No. 121 (peptide)
peptide: Ac-CNTWK(Ac)[αMeC][AEF][2Nal][αMeK]K(Ac)N[Thp]-NH2
modifications: disulfide 1-6
SMILES: CC(=O)NCCCC[C@@H]1NC(=O)[C@H](Cc2c[nH]c3ccccc23)NC(=O)[C@H]([C@@H](C)O)NC(=O)[C@H](CC(N)=O)NC(=O)[C@@H](NC(C)=O)CSSC[C@@](C)(C(=O)N[C@@H](Cc2ccc(OCCN)cc2)C(=O)N[C@@H](Cc2ccc3ccccc3c2)C(=O)N[C@@](C)(CCCCN)C(=O)N[C@@H](CCCCNC(C)=O)C(=O)N[C@@H](CC(N)=O)C(=O)NC2(C(N)=O)CCOCC2)NC1=O
B9: Compound No. 141 (peptide)
peptide: Ac-[Pen]NT[Trp(7-Me)]K(Ac)[Pen][AEF][2Nal][Thp]K(Piv)N[Thp]-NH2
modifications: disulfide 1-6
SMILES: CC(=O)NCCCC[C@@H]1NC(=O)[C@H](Cc2c[nH]c3c(C)cccc23)NC(=O)[C@H]([C@@H](C)O)NC(=O)[C@H](CC(N)=O)NC(=O)[C@@H](NC(C)=O)C(C)(C)SSC(C)(C)[C@@H](C(=O)N[C@@H](Cc2ccc(OCCN)cc2)C(=O)N[C@@H](Cc2ccc3ccccc3c2)C(=O)NC2(C(=O)N[C@@H](CCCCNC(=O)C(C)(C)C)C(=O)N[C@@H](CC(N)=O)C(=O)NC3(C(N)=O)CCOCC3)CCOCC2)NC1=O
B10: Compound No. 140 (peptide)
peptide: Ac-[Pen]NT[Trp(7-Me)]K(Ac)[Pen][AEF][2Nal][Thp]K(Tfa)N[Thp]-NH2
modifications: disulfide 1-6
SMILES: CC(=O)NCCCC[C@@H]1NC(=O)[C@H](Cc2c[nH]c3c(C)cccc23)NC(=O)[C@H]([C@@H](C)O)NC(=O)[C@H](CC(N)=O)NC(=O)[C@@H](NC(C)=O)C(C)(C)SSC(C)(C)[C@@H](C(=O)N[C@@H](Cc2ccc(OCCN)cc2)C(=O)N[C@@H](Cc2ccc3ccccc3c2)C(=O)NC2(C(=O)N[C@@H](CCCCNC(=O)C(F)(F)F)C(=O)N[C@@H](CC(N)=O)C(=O)NC3(C(N)=O)CCOCC3)CCOCC2)NC1=O
B11: Compound No. 139 (peptide)
peptide: Ac-[Pen]NT[Trp(7-Me)]K(Ac)[Pen][AEF][2Nal][Thp]K(Piv)N[αMeF]-NH2
modifications: disulfide 1-6
SMILES: CC(=O)NCCCC[C@@H]1NC(=O)[C@H](Cc2c[nH]c3c(C)cccc23)NC(=O)[C@H]([C@@H](C)O)NC(=O)[C@H](CC(N)=O)NC(=O)[C@@H](NC(C)=O)C(C)(C)SSC(C)(C)[C@@H](C(=O)N[C@@H](Cc2ccc(OCCN)cc2)C(=O)N[C@@H](Cc2ccc3ccccc3c2)C(=O)NC2(C(=O)N[C@@H](CCCCNC(=O)C(C)(C)C)C(=O)N[C@@H](CC(N)=O)C(=O)N[C@@](C)(Cc3ccccc3)C(N)=O)CCOCC2)NC1=O

Target: T1, human IL-23R (interleukin-23 receptor)
Experiment: cell-based or functional assay

PBMC pSTAT3 IC50 (nM) | Binder
4.9 | PentCO-[dR][Pen]NT[Trp(7-Me)]K(Ac)[Pen][AEF][2Nal][Thp]EN[αMeF]-NH2 (disulfide 2-7) [Compound No. 142]
14 | B1
21 | B2
7.6 | B3
9.2 | B4
11 | Ac-[dR][Abu]QTWQC[AEF][2Nal][Thp]EN[αMeF]-NH2 (thioether 2-7) [Compound No. 123]
11 | B5
8.9 | FlagTag-[dR][Pen]NT[Trp(7-Me)]K(Ac)[Pen][AEF][2Nal][Thp]EN[Thp]-NH2 (disulfide 2-7; also: FlagTag sequence not given here) [Compound No. 146]
48 | Ac-[dR][Pen]QTWQ[Pen][AEF][2Nal][Thp]EN[(N-Pip)Asn]-NH2 (disulfide 2-7) [Compound No. 127]
54 | B6
2.3 | B7
41 | B8
3.7 | B9
2.6 | B10
51 | Ac-[dR][Pen]QTWQ[Pen][AEF][2Nal][Thp]EN[(N-Pyr)Asn]-NH2 (disulfide 2-7) [Compound No. 128]
6.6 | B11

Source: US20220402983A1 (Janssen / Centocor, published 2022)
